First the molecules themselves.
B1: THAP1; numbered along this chain (parent)
chain: MVQSCSAYGCKNRYDKDKPVSFHKFPLTRPSLCKEWEAAVRRKNFKPTKYSSICSEHFTPDCFKRECNNKLLKENAVPTIFLCTEPHDKKEDLLEPQEQLPPPPLPPPVSQVDAAIGLLMPPLQTPVNLSVFCDHNYTVEDTMHQRKRIHQLEQQVEKLRKKLKTAQQRCRRQERQLEKLKEVVHFQKEKDDVSERGYVILPNDYFEIVEVPA

From the supplement of paper PMC11811203 come the findings set out here.

The variants in this data set derive from B1. In words: THAP1 transcriptional activity (GFP+/GFP- enrichment relative to wild-type constructs) (ratio to WT); higher = more THAP1 activity (PSMB5 reporter activation). Particulars: with PSMB5 promoter-GFP reporter. In a few lines: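 A site-saturation library of human THAP1 (residues 2–213, each changed to all 20 amino acids) was transduced by lentivirus at MOI ~0.3, in duplicate, into THAP1-knockout HEK-293T cells carrying mClover3 knocked in at endogenous PSMB5. After five days, BFP+ cells were sorted into GFP-dim and GFP-bright bins, and variants were counted by Illumina sequencing of genomic DNA amplicons. Activity is the replicate-mean bright/dim read fold change divided by the mean of wild-type synonymous constructs.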
As for MVQSCSAYGCKNRYDKDKPVSFHKFPLTRPSLCKEWEAAVRRKNFKPTKYSSICSEHFTPDCFKRECNNKLLKENAVPTIFLCTEPHDKKEDLLEPQEQLPPPPLPPPVSQVDAAIGLLMPPLQTPVNLSVFCDHNYTVEDTMHQRKRIHQLEQQVEKLRKKLKTAQQRCRRQERQLEKLKEVVHFQKEKDDVSERGYVILPNDFFEIVEVPA [Y205F], the THAP1 transcriptional activity is 0.778.
Next, MVQSCSAYGCKNRYDKDKPVSFHKFPLTRPSLCKEWEAAVRRKNFKPTKYSSICSEHFTPDCFKRECNNKLLKENAVPTIFLCTEPHDKKEDLLEPQEQLPPPPLPPPVSQVDAAIGLLMPPLQTPPNLSVFCDHNYTVEDTMHQRKRIHQLEQQVEKLRKKLKTAQQRCRRQERQLEKLKEVVHFQKEKDDVSERGYVILPNDYFEIVEVPA [V127P]: 0.879; MVQSCSAYGCKNRYDKDKPVSFHKFPLTRPSLCKEWEAAVRRKNFKPTKYSSICSEHFTPDCFKRECNNKLLKENAVPTIFLCTEPHDKKEDLLEPQEQLPPPPLPPPVSQVDAAIGLLMPPLQTPVNLSVFCDHNYTVEDTMHQRKRIHQLEQRVEKLRKKLKTAQQRCRRQERQLEKLKEVVHFQKEKDDVSERGYVILPNDYFEIVEVPA [Q155R]: 0.65.
In the case of MVQSCSAYGCKNRYDKDKPVSFHKFPLTRPSLCKSWEAAVRRKNFKPTKYSSICSEHFTPDCFKRECNNKLLKENAVPTIFLCTEPHDKKEDLLEPQEQLPPPPLPPPVSQVDAAIGLLMPPLQTPVNLSVFCDHNYTVEDTMHQRKRIHQLEQQVEKLRKKLKTAQQRCRRQERQLEKLKEVVHFQKEKDDVSERGYVILPNDYFEIVEVPA [E35S], the THAP1 transcriptional activity stood at 0.44.
With MVQSCSAYGCKNRYDKDKPVSFHKFPLTRPSLCKCWEAAVRRKNFKPTKYSSICSEHFTPDCFKRECNNKLLKENAVPTIFLCTEPHDKKEDLLEPQEQLPPPPLPPPVSQVDAAIGLLMPPLQTPVNLSVFCDHNYTVEDTMHQRKRIHQLEQQVEKLRKKLKTAQQRCRRQERQLEKLKEVVHFQKEKDDVSERGYVILPNDYFEIVEVPA [E35C], the THAP1 transcriptional activity turned out to be 0.317.
Take MVQSCSAYGCKNRYDKDKPVSFHKFPLTRPSLCKEWEAAVRRKNFKPTKYSSICSEHFTPDCFKRECNNKLLKENQVPTIFLCTEPHDKKEDLLEPQEQLPPPPLPPPVSQVDAAIGLLMPPLQTPVNLSVFCDHNYTVEDTMHQRKRIHQLEQQVEKLRKKLKTAQQRCRRQERQLEKLKEVVHFQKEKDDVSERGYVILPNDYFEIVEVPA [A76Q]: the THAP1 transcriptional activity was 0.234.
The same measure for MVQSCSAYGCKNRYDKDKPVSFHKFPLTRPSLCKEWEAAVRRKNFKPTKYSSICSEHFTPDCFKRECNNKLLKENAVPTIFLCTEPHDKKEDLLEPQEQLPPPPLPPPVSQVDAAIGLLMPPLQTPVNLSVFCDHNYTVEDTMHQRKRIHQLEQQVEKLRKKLKTAQQRCRRQERQLEKLKEVVHFQKEKDDVSERGYVILPNDYFEIVEVPD [A213D]: 0.729; for MVQSCSAYGCKNRYDKDKPVSFHKFPLTRPSLCKEWEAAVRRKNFKPTKYSSICSEHFTPDCFKRECNNKLLKENAVPTIFLCTEPHDKKEDLLEPWEQLPPPPLPPPVSQVDAAIGLLMPPLQTPVNLSVFCDHNYTVEDTMHQRKRIHQLEQQVEKLRKKLKTAQQRCRRQERQLEKLKEVVHFQKEKDDVSERGYVILPNDYFEIVEVPA [Q97W]: 0.632.
For MVQSCSAYGCKNRYDKDKPVSFHKFPLTRPSLCKEWEAAVRRKNFKPTKYSSICSEHFTPDCFKRECNNKLLKENAVPTIFLCTEPHDKKEDLLEPQEQLPPPPLPPPVSQVDAAIGLLMPPLQTPVNLSVFCDHNYTVEDTMHQRKRIHQLEQQVEKLRKKLKTAQQRCRRQERQLEKLKEVVHFQKEKDDVSERGYVMLPNDYFEIVEVPA [I200M], the THAP1 transcriptional activity was 0.751.
Next, MVQSCSAYGCKNRYDKDKPVSFHKFPLTRPSLCKEWEAAVRRKNFKPTKYSSICSEHFTPDCFKRECNNKLLKENAVPTIFLCTEPHDKKEDLLEPQEQLPPPPLPPPVSQVDAAIGLLMPPLQTPVNLSVFCDHNYTVEDTMHQRKRIHQLEQQVEKLRKKLKTAQQRCRRQERQLEKLKEVVHFQKEKDDVSERGLVILPNDYFEIVEVPA [Y198L]: 1.02; MVQSCSAYGCKNRYDKDKPVSFHKFPLTRPSLCKEWEAAVRRKNFKPTKYSSICSEHFTPDCFKRECNNKLLKENAVPTIFLCTEPHDKKEDLLEPQEQLPPPPLPPPVPQVDAAIGLLMPPLQTPVNLSVFCDHNYTVEDTMHQRKRIHQLEQQVEKLRKKLKTAQQRCRRQERQLEKLKEVVHFQKEKDDVSERGYVILPNDYFEIVEVPA [S110P]: 0.916.
Take MVQSCSAYGCKNRYDKDKPVSFHKFPLTRPSLCKEWEAAVRRKNFKPTKYSSICSEHFTPDCFKRECNNKLLKENAVPTIFLCTEPHDKKEDLLEPQEQLPPPPLPPSVSQVDAAIGLLMPPLQTPVNLSVFCDHNYTVEDTMHQRKRIHQLEQQVEKLRKKLKTAQQRCRRQERQLEKLKEVVHFQKEKDDVSERGYVILPNDYFEIVEVPA [P108S]: the THAP1 transcriptional activity came to 1.65.
MVQSCSAYGCKNRYDKDKPVSFHKFPLTRPSLCKEWEAAVRRKNFKPTKYSSICSEHFTPDCFKRECNPKLLKENAVPTIFLCTEPHDKKEDLLEPQEQLPPPPLPPPVSQVDAAIGLLMPPLQTPVNLSVFCDHNYTVEDTMHQRKRIHQLEQQVEKLRKKLKTAQQRCRRQERQLEKLKEVVHFQKEKDDVSERGYVILPNDYFEIVEVPA [N69P]: the THAP1 transcriptional activity amounted to 0.092.
Next, MVQSCSAYGCKNRYDKDKPVSFHKFPLTRPSLCKEWEAAVRRKNFKPTKYSSICSEHFTPDCFKRECNNKLLKENAVPTIFLCTEPHDKKEDLLEPQEQLPPPPLPPPVSQVDAAIGLLMPPLQTPVNLSVFCDHNYTVNDTMHQRKRIHQLEQQVEKLRKKLKTAQQRCRRQERQLEKLKEVVHFQKEKDDVSERGYVILPNDYFEIVEVPA [E140N]: 1.33.
